From patent publication US20090042248A1 (TARGETEX KFT, published 2009)

Target: T1, MASP-2 CCP1-CCP2-SP fragment (human, UniProt O00187 291-444; O00187 445-686)
T1 construct: range 291-444;range 445-686; also called MASP-2γB; MASP-2 catalytic fragment
Assay: SDS-stable complex formation of 125I-labelled MASP fragment with C1-inhibitor; irreversible inhibition preceded by reversible complex formation, non-linear regression
Protocol: To assess the rate of SDS stable complex formation between the MASP-1 and MASP-2 CCP1-CCP2-SP fragments and C1-inhibitor, the ¹²⁵I-labelled MASP fragments at concentrations ranging between 30-100 nM were incubated with 100-350 nM C1-inhibitor at 37° C. in 20 mM HEPES, 140 mM NaCl, pH 7.4 for 40 minutes. Typically 11-13 samples were taken at varying time periods. […] The samples were further incubated at 37° C. for 30 minutes and run on reducing SDS-PAGE. Cleavages rates were visualized by means of autoradiography and the diminution of the reacted MASP chain was quantified using a GEL DOC 1000 instrument and Molecular Analyst Software for densitometric calculations (Bio-Rad, Hercules, Calif., USA). The kinetic constants were calculated assuming irreversible inhibition proceeded by reversible enzyme-inhibitor complex formation. Using steady-state approximation and neglecting the starting enzyme concentration compared to the starting inhibitor concentration ([I₀]>>[E₀]) the data was regressed on the following equation using non-linear regression methods: [E]=[E₀]exp(−kobst); kobs=k₂[I₀]/(Kᵢ+[I₀]), where kobs is the observed pseudo-first order rate of reaction, k₂ is the rate of irreversible enzyme-inhibitor complex formation and Kᵢ is the inhibitory constant.

T1 sequence (O00187 291-444 limits assumed, form in doubt, chain 1 of 2): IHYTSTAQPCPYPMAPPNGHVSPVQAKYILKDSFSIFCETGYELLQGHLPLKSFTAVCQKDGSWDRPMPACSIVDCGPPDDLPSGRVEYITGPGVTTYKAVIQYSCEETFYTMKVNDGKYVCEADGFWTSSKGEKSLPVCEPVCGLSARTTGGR
T1 sequence (O00187 445-686 limits assumed, form in doubt, chain 2 of 2): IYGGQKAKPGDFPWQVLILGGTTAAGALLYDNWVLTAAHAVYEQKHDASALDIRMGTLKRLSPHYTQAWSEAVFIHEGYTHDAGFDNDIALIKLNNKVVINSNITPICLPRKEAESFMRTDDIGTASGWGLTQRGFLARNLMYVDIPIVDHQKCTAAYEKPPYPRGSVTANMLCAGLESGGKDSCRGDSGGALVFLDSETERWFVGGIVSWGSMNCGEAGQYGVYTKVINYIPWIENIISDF

B1: C1-inhibitor (other, human, UniProt P05155 23-500, looked up)
chain: NPNATSSSSQDPESLQDRGEGKVATTVISKMLFVEPILEVSSLPTTNSTTNSATKITANTTDEPTTQPTTEPTTQPTIQPTQPTTQLPTDSPTQPTTGSFCPGPVTLCSDLESHSTEAVLGDALVDFSLKLYHAFSAMKKVETNMAFSPFSIASLLTQVLLGAGENTKTNLESILSYPKDFTCVHQALKGFTTKGVTSVSQIFHSPDLAIRDTFVNASRTLYSSSPRVLSNNSDANLELINTWVAKNTNNKISRLLDSLPSDTRLVLLNAIYLSAKWKTTFDPKKTRMEPFHFKNSVIKVPMMNSKKYPVAHFIDQTLKAKVGQLQLSHNLSLVILVPQNLKHRLEDMEQALSPSVFKAIMEKLEMSKFQPTLLTLPRIKVTTSQDMLSIMEKLEFFDFSYDLNLCGLTEDPDLQVSAMQHQTVLELTETGVEAAAASAISVARTLLVFEVQQPFLFVLWDQQHKFPVFMGRVYDPRA
notes: mature; Serum-purified, glycosylated; molecular weight of 71.1 kDa used
Ki: 8.8 nM
